The target in assay [1] is T1, cyclo(CGTKEQGGGG), free (cyclized via a head-to-tail (C-G) amide bond).
T1 construct: free cyclic peptide, not conjugated; also called (1,4)-C-Free
T1 peptide: CGTKEQGGGG
Nature of the assay: indirect ELISA. On the technique in general: ELISA stands for enzyme-linked immunosorbent assay.

Another assay has as its target T2, Human Transferrin (human, UniProt P02787 20-698).
T2 construct: irrelevant antigen in ELISA; also called HT
Nature of the assay: indirect ELISA.

Another assay has as its target T3, HSA (human, UniProt P02768 25-609).
T3 construct: irrelevant antigen in ELISA; read as human serum albumin; also called Hum; SA; HAS
As to the kind of experiment: indirect ELISA.

For assay [2], the target named is T4, Bovine serum albumin (BSA) (bovine, UniProt P02769 25-607).
T4 construct: carrier protein alone as ELISA control
Nature of the assay: indirect ELISA.

For the next assay, the target named is T5, cyclo(CGTKEQGGGG)-BSA (also: conjugated to BSA via maleimide-based coupling).
T5 construct: also called (1,4)-C-BSA; 1,4-C-BSA
T5 peptide: cyclo(CGTKEQGGGG)
As to the kind of experiment: indirect ELISA.

Assay [3] has as its target T1, cyclo(CGTKEQGGGG), free. Nature of the assay: indirect ELISA.
The target of the next assay is T6, cyclo(CGGTKEQGG)-BSA (also: conjugated to BSA via maleimide-based coupling).
T6 construct: also called (2,2)-C-BSA; (2, 2) C-BSA
T6 peptide: cyclo(CGGTKEQGG)
Nature of the assay: indirect ELISA.

The target of a further assay is T7, Linear CGGTKEQGG-BSA (also: conjugated to BSA).
T7 construct: linear peptide-BSA screening antigen; also called (2,2)-L-BSA; (2, 2) L-BSA
T7 peptide: CGGTKEQGG
As to the kind of experiment: indirect ELISA.

The target of another assay is T8, cyclo(CGGTKEQGGGG)-BSA (also: conjugated to BSA via maleimide-based coupling).
T8 construct: also called (2,4)-C-BSA; 2,4-C-BSA
T8 peptide: cyclo(CGGTKEQGGGG)
As to the kind of experiment: indirect ELISA.

Assay [4] deals with T9, alpha-synuclein oligomers (UniProt P37840 1-140). As to the kind of experiment: cell-based or functional assay.
Assay [5] has as its target T9, alpha-synuclein oligomers. Nature of the assay: Millipore SMC, antibody-coated magnetic particles, detection with labeled 4D6.
Assay [6] has as its target alpha-synuclein sonicated preformed fibrils (soluble fibrils) (human, UniProt P37840 1-140). The description is as above.

Where two headings read alike, the source gives them in different places. Where no end group is shown, it is not given here.

T2 sequence (P02787 20-698 limits assumed): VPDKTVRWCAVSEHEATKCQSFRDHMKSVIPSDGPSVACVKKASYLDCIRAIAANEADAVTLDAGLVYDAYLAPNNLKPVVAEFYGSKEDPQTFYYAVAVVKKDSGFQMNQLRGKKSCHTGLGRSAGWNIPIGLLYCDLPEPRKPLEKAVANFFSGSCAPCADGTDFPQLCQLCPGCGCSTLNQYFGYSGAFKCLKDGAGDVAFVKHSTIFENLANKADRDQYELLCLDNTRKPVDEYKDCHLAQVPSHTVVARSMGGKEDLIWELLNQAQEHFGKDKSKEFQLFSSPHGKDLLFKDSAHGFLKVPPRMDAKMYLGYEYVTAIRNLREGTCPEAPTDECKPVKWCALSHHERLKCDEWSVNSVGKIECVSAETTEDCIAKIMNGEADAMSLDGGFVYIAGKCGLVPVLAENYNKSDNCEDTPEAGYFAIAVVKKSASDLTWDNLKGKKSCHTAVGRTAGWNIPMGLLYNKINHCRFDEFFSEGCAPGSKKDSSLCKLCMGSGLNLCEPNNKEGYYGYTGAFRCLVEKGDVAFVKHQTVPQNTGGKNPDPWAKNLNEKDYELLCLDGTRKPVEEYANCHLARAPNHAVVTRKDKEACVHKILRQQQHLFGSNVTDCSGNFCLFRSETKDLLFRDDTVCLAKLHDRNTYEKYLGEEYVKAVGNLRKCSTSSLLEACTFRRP
T4 sequence (P02769 25-607 limits assumed): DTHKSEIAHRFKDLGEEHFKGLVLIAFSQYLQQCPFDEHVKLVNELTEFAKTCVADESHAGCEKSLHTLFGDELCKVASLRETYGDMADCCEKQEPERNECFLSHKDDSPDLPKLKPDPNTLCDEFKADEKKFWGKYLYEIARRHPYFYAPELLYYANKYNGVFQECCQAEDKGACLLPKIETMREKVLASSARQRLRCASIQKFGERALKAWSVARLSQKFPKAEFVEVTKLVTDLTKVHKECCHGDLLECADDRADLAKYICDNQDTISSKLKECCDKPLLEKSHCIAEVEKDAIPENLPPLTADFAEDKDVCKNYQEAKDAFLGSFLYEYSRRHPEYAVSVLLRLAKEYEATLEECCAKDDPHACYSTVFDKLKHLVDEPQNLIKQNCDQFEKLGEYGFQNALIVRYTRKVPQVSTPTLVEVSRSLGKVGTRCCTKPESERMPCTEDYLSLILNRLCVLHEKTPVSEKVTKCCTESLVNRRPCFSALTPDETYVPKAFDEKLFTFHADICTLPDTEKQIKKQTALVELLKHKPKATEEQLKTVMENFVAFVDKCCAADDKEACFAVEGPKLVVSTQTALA

B1: 10D5 (antibody, V domains shown)
VH: EVQLQQSGAELVRPGALVKLSCKGSGFNIKDYYMSWVKQRPEQGLEWIGWIDPENDNTIYDSKFQGKASITADTSSNTAYLQFSSLTPEDTAVYYCAMGGFTYWGQGTLVTVSA
VL: not shown
With B1, the ELISA reading in the assay with cyclo(CGTKEQGGGG), free [1] was 1.25; with Human Transferrin, 0.06; in the assay with HSA, 0.065; in [2], 0.066; in the assay with cyclo(CGTKEQGGGG)-BSA, 2.04; with cyclo(CGTKEQGGGG), free [3], 1.25. Further, the ELISA reading with cyclo(CGGTKEQGG)-BSA was 0.064; in the assay with Linear CGGTKEQGG-BSA, 0.045; in the assay with cyclo(CGGTKEQGGGG)-BSA, 1.95. Further, the “dopaminergic neuron survival, antibody at 250 nM” value in [4] was 88.9 % of the control. The “fold selectivity for oligomers versus monomers (from LLoQ)” value in assay [5] is 9300 fold. The “fold selectivity for fibrils versus monomers (from LLoQ)” value in assay [6] amounted to 11200 fold.

These data come from patent US20230051538A1 (UNIVERSITY OF BRITISH COLUMBIA, published 2023).
